{
  "source": "paper PMC3485042",
  "biological_target": "IhfAB (integration host factor) (UniProt P0A6X7+P0A6Y1)",
  "sequence (P0A6X7 whole entry, chain 1 of 2)": "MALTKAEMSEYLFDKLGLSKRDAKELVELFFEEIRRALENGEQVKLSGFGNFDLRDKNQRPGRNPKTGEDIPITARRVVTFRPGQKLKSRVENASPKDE",
  "sequence (P0A6Y1 whole entry, chain 2 of 2)": "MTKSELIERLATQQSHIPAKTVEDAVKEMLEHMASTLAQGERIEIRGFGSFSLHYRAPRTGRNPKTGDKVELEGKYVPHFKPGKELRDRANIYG",
  "assay": "DNase I footprinting",
  "conditions": "25 mM Tris-HCl pH 7.5, 50 mM KCl, 6.25 mM MgCl2, 10% glycerol, 1 mM DTT, 30 min room temperature; then 2.5 mM CaCl2 and 5 mM MgCl2 added for DNase I (1 min)",
  "data": [
    {"sequence": "TCTGGTTTGGTTTTGTTTTGCGGGTTAAAAGATCGTTTAAATCAATATTTACAACATAAAAAACTAAATTTAACTTATTGCGTGAAGAGTATTTCCGGGCCGGAAGCATATATCCAGGGGCCCGACAGAAGGGGGAAACAT (double strand) [papB promoter region (141 bp PCR product)]", "values": [
      {"measurement": "binding", "result": "binds"}
    ]}
  ]
}
